Patent US20110245167A1

Biological target: Recombinant human Src expressed in Sf9 insect cells (purified recombinant full-length Src from Upstate Biotechnology) (human) (UniProt P12931)
Test: cell-based or functional assay

With “GST-ND1 (amino acid residue 379-435 of pig kidney Na/K-ATPase α1 subunit) (from UniProt P05023 381-439)” the IC50 of Src inhibition (pY418) was 0.05 µM.
